Assay results from patent publication US20260167959A1, “APTAZYME-BASED REGULATABLE GENE EXPRESSION SYSTEMS” (REJUVENATE BIO INC, priority 2022, published 2026).

B1: RA140 (nucleic acid)
DNA: GCGCGTCCTGGATTCGCGGAAACGCGTACATCCAGCTGACGAGTCCGGAATACCAGCATCGTCTTGATGCCCTTGGAAGTCCGGCCCAAATAGGACGAAACGCGC
modifications: expressed or natural sequence
B2: RA143 (nucleic acid)
DNA: GCGCGTCCTGGATTCGCGGAAACGCGTACATCCAGCTGACGAGTGATACCAGCATCGTCTTGATGCCCTTGGCAGCACTAGTCCCAAATAGGACGAAACGCGC
modifications: expressed or natural sequence
B3: RA132 (nucleic acid)
DNA: GCGCGTCCTGGATTCGCGGAATACCAGCATCGTCTTGATGCCCTTGGAAGTCCGGAAACGCGTACATCCAGCTGACGAGTCCCAAATAGGACGAAACGCGC
modifications: expressed or natural sequence
B4: RA157 (nucleic acid)
DNA: GCGCGTCCTGGATTCGCGGAAACGCGTAAGAATACCAGCATCGTCTTGATGCCCTTGGAAGTCTCATCCAGCTGACGAGTCCCAAATAGGACGAAACGCGC
modifications: expressed or natural sequence
B5: RA013 (nucleic acid)
DNA: GCGCGTCCTGGATTCGCGGAAACGCGTACATCCAGCTGACGAGTCCCAAATAGGACGAAACGAGAATACCAGCATCGTCTTGATGCCCTTGGAAGTCTCGC
modifications: expressed or natural sequence
B6: RA136 (nucleic acid)
DNA: GCGCGTCCTGGATTCGCGGAAACGCGTACATCCAGCTGACGAGTCCCAAATAGGACGAAACGGAGAATACCAGCATCGTCTTGATGCCCTTGGAAGTCTCCGC
modifications: expressed or natural sequence
B7: RA152 (nucleic acid)
DNA: GCGCGTGGAATACCAGCATCGTCTTGATGCCCTTGGAAGTCCCCTGGATTCGCGGAAACGCGTACATCCAGCTGACGAGTCCCAAATAGGACGAAACGCGC
modifications: expressed or natural sequence
B8: RA147 (nucleic acid)
DNA: GCGCGTCCTGGATTCGCGGAAACGCGTACATCCAGCTGACGAGTAGAATACCAGCATCGTCTTGATGCCCTTGGAAGTCTCCCAAATAGGACGAAACGCGC
modifications: expressed or natural sequence
B9: RA148 (nucleic acid)
DNA: GCGCGTCCTGGATTCGCGGAAACGCGTACATCCAGCTGACGAGAGAATACCAGCATCGTCTTGATGCCCTTGGAAGTCTTCCCAAATAGGACGAAACGCGC
modifications: expressed or natural sequence
B10: RA154 (nucleic acid)
DNA: GCGCGTCCTGGATTCGCGGAAACGCGAGAATACCAGCATCGTCTTGATGCCCTTGGAAGTCTCGTACATCCAGCTGACGAGTCCCAAATAGGACGAAACGCGC
modifications: expressed or natural sequence
B11: RA146 (nucleic acid)
DNA: GCGCGTCCTGGATTCGCGGAAACGCGTACATCCAGCTGACGAGTCCCAAATAGGAATACCAGCATCGTCTTGATGCCCTTGGAAGTCCGGACGAAACGCGC
modifications: expressed or natural sequence
B12: RA134 (nucleic acid)
DNA: GCGCGTCCTGGATTCGCGGAAACGCGTACATCCAGCTGACGAGTCGGAATACCAGCATCGTCTTGATGCCCTTGGAAGTCCGCCCAAATAGGACGAAACGCGC
modifications: expressed or natural sequence
B13: RA149 (nucleic acid)
DNA: GCGCGGAGAATACCAGCATCGTCTTGATGCCCTTGGAAGTCTCTCCTGGATTCGCGGAAACGCGTACATCCAGCTGACGAGTCCCAAATAGGACGAAACGCGC
modifications: expressed or natural sequence
B14: RA133 (nucleic acid)
DNA: GCGCGAGAATACCAGCATCGTCTTGATGCCCTTGGAAGTCTCGTCCTGGATTCGCGGAAACGCGTACATCCAGCTGACGAGTCCCAAATAGGACGAAACGCGC
modifications: expressed or natural sequence
B15: RA142 (nucleic acid)
DNA: GCGCGTCCTGGATTCGCGGAAACGCGTACGGAATACCAGCATCGTCTTGATGCCCTTGGAAGTCCATCCAGCTGACGAGTCCCAAATAGGACGAAACGCGC
modifications: expressed or natural sequence
B16: RA137 (nucleic acid)
DNA: GCGCGTCCTGGATTCGCGGAAACGCGTACGAGAATACCAGCATCGTCTTGATGCCCTTGGAAGTCTCATCCAGCTGACGAGTCCCAAATAGGACGAAACGCGC
modifications: expressed or natural sequence
B17: RA150 (nucleic acid)
DNA: GCGCGTCCTGGATTCGCGGAAACGCGTACATCCAGCTGACGAGTCCCAAATAGGACGAAAGGAATACCAGCATCGTCTTGATGCCCTTGGAAGTCCCGCGC
modifications: expressed or natural sequence
B18: RA014 (nucleic acid)
DNA: GCGCGTCCTGGATTCGCGGAAACGCGTACATCCAGCTGACGAGTCCCAAATAGGACGAAACGGAATACCAGCATCGTCTTGATGCCCTTGGAAGTCCGCGC
modifications: expressed or natural sequence
B19: RA138 (nucleic acid)
DNA: GCGCGGAATACCAGCATCGTCTTGATGCCCTTGGAAGTCCGCGTCCTGGATTCGCGGAAACGCGTACATCCAGCTGACGAGTCCCAAATAGGACGAAACGCGC
modifications: expressed or natural sequence
B20: RA135 (nucleic acid)
DNA: GCGCGTCCTGGATTCGCGGAAACGAGTGATACCAGCATCGTCTTGATGCCCTTGGCAGCACTCGTACATCCAGCTGACGAGTCCCAAATAGGACGAAACGCGC
modifications: expressed or natural sequence
B21: RA145 (nucleic acid)
DNA: GCGCGGAATACCAGCATCGTCTTGATGCCCTTGGAAGTCCGTCCTGGATTCGCGGAAACGCGTACATCCAGCTGACGAGTCCCAAATAGGACGAAACGCGC
modifications: expressed or natural sequence
B22: RA151 (nucleic acid)
DNA: GCGCGTCCTGGATTCGCGGAAACGCGTACCGGAATACCAGCATCGTCTTGATGCCCTTGGAAGTCCGGCATCCAGCTGACGAGTCCCAAATAGGACGAAACGCGC
modifications: expressed or natural sequence
B23: RA153 (nucleic acid)
DNA: CGAGAATACCAGCATCGTCTTGATGCCCTTGGAAGTCTCGGCGCGTCCTGGATTCGCGGAAACGCGTACATCCAGCTGACGAGTCCCAAATAGGACGAAACGCGC
modifications: expressed or natural sequence
B24: RA144 (nucleic acid)
DNA: GCGCGCGAGAATACCAGCATCGTCTTGATGCCCTTGGAAGTCTCGTCCTGGATTCGCGGAAACGCGTACATCCAGCTGACGAGTCCCAAATAGGACGAAACGCGC
modifications: expressed or natural sequence
B25: RA015 (nucleic acid)
DNA: GCGCGTCCTGGATTCGCGGCGGAATACCAGCATCGTCTTGATGCCCTTGGAAGTCCGAAACGCGTACATCCAGCTGACGAGTCCCAAATAGGACGAAACGCGC
modifications: expressed or natural sequence
B26: RA141 (nucleic acid)
DNA: GCGCGTCCTGGATTCGCGGAAACGCGTACATCCGGAATACCAGCATCGTCTTGATGCCCTTGGAAGTCCGGCCAGCTGACGAGTCCCAAATAGGACGAAACGCGC
modifications: expressed or natural sequence
B27: RA155 (nucleic acid)
DNA: GCGCGTCCTGGATTCGCGGAAACGCGTACATCCAGCTGACGAGTCCCAAATAGGACGAGAATACCAGCATCGTCTTGATGCCCTTGGAAGTCTCGCGAAACGCGC
modifications: expressed or natural sequence
B28: RA156 (nucleic acid)
DNA: GCCGGAATACCAGCATCGTCTTGATGCCCTTGGAAGTCCGGCGCGTCCTGGATTCGCGGAAACGCGTACATCCAGCTGACGAGTCCCAAATAGGACGAAACGCGC
modifications: expressed or natural sequence
B29: RA139 (nucleic acid)
DNA: GGAGAATACCAGCATCGTCTTGATGCCCTTGGAAGTCTCCGCGTCCTGGATTCGCGGAAACGCGTACATCCAGCTGACGAGTCCCAAATAGGACGAAACGCGC
modifications: expressed or natural sequence

System: Renilla luciferase RNA
Assay: Barcoded aptazyme variant library screen: un-cleaved Renilla luciferase RNA by barcode read counts, HEK293-T cells
Type: cell-based
Settings: un-cleaved Renilla luciferase RNA, HEK293-T cells cultured with 1 mM theophylline (ON) over without theophylline (OFF); barcode read counts, triplicate
In short: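 Barcode sequencing of cDNA versus DNA, normalized per aptazyme, gave the un-cleaved Renilla luciferase RNA fraction and fold-change with versus without theophylline (triplicates). Library: T3H48 ribozyme with one of seven theophylline aptamer variants inserted at each position, placed in the Renilla 3′ UTR of a dual-luciferase vector.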

Fold change in RNA expression between the ON state and the OFF state, 3.3 fold:
B5

Fold change in RNA expression between the ON state and the OFF state, 1.4 fold:
B1, B2, B3, B6, B7, B8, B9, B11, B12, B13, B14, B15, B16, B17, B19, B20, B21, B22, B24, B26, B29

Fold change in RNA expression between the ON state and the OFF state, 1.3 fold:
B4, B10, B23, B27, B28

Fold change in RNA expression between the ON state and the OFF state, 3.0 fold:
B25

Fold change in RNA expression between the ON state and the OFF state, 3.1 fold:
B18
